Results as given in the supplement of paper PMC10266784.

B1: library; numbered along this chain (parent)
chain: MAAAAAAAAEQQSSNGPVKKSMREKAVERRSVNKEHNSNFKAGYIPIDEDRLHKTGLRGRKGNLAICVIILLFILAVINLIITLVIWAVIRIGPNGCDSMEFHESGLLRFKQVSDMGVIHPLYKSTVGGRRNENLVITGNNQPIVFQQGTTKLSVENNKTSITSDIGMQFFDPRTQNILFSTDYETHEFHLPSGVKSLNVQKASTERITSNATSDLNIKVDGRAIVRGNEGVFIMGKTIEFHMGGNMELKAENSIILNGSVMVSTTRLPSSSSGDQLGSGDWVRYKLCMCADGTLFKVQVTSQNMGCQISDNPCGNTH

Variants of: B1
Assay: SGCB cell-surface expression functional score (HA stain, bin4 vs bin1, normalised to synonymous) (log10 ratio); higher = more cell-surface SGCB (functional)
Method in brief: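 Codon-saturation libraries of HA-tagged, YFP-fused human beta-sarcoglycan were lentivirally transduced at MOI <0.1 into HEK293 cells stably expressing alpha-, gamma- and delta-sarcoglycan. YFP-positive cells were sorted after 72 hours, grown 5–7 days, stained on ice with Alexa Fluor 647 anti-HA, fixed, sorted into four 5% intensity bins and amplicon-sequenced. The functional score is the log ratio of highest-bin to lowest-bin variant frequency, taken as the median over codons and duplicate transductions. Synonymous variants were scaled per section to mean 0, SD 0.5.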

SGCB cell-surface expression functional score (log10) of substitutions, site by site:
I218: K -1.78 | A -0.08 | T -0.49 | N -1.03 | V 0.46 | E -1.24 | L 0.56 | G -1.15 | S -1.26 | C -0.48 | P -0.63 | H -2.33 | M 0.26 | F 0.87 | Q -2.02 | Y -1.39 | R -1.49 | D -1.45 | W -0.149
L216: R -1.93 | Q -0.15 | V -2.64 | D -2.69 | H -2.1 | T -1.02 | S -1.57 | I -0.71 | W -0.99 | Y -1.59 | G -1.5 | E -1.92 | P -1.25 | F -0.42 | C -2.34 | N -1.72 | M 0.99 | A -1.97 | K -0.59
D215: E 0.16 | T -0.88 | R -0.63 | G -0.26 | C -1.31 | Y -0.46 | L -1.51 | N 0.41 | P -0.55 | Q -1.03 | S -0.25 | V -0.56 | K 0 | A -0.72 | M -1 | H -0.39 | F -1.47 | I -0.99
N217: P -1.08 | L 0.37 | D 0.2 | I 0.1 | A 0.9 | H 0 | M 0.27 | W -1.28 | E 0.9 | T 0.16 | G 0.5 | K 0.3 | Q 0.77 | R 0.7 | Y 0.59 | C -0.04 | S 0.54 | F 1.13 | V 0.65
R227: K 1.05 | M 1.08 | D 0.42 | L 0.68 | N -0.13 | Q 0.55 | G 0.48 | C 0.03 | E 1.04 | F -0.49 | H 0.55 | I -0.01 | P -1.23 | S 0.71 | A 0.72
D221: F 1 | R 0.19 | I 0.45 | A 0.18 | M 0.53 | G 0.35 | C -0.33 | N -0.22 | T 0.96 | P 0.1 | K 0.13 | L 0.62 | V 0.59 | H 0.75 | E 0.01 | Q 0.74 | S 0.59 | W 0.8 | Y 0.42
R223: K 0.86 | W 0 | F -0.62 | A 0.72 | S 0.18 | N 0.66 | M 0.82 | C 0.4 | V -0.13 | G 0.12 | I 0.02 | T 0.4 | Y 0.77 | P 0.58 | E 0.43 | H 0.2 | Q 0.48 | L 0.34 | D 0.48
T213: N 0.03 | A -0.44 | H -0.04 | F -0.31 | V -1.02 | L -0.5 | Q 0.13 | P -1.5 | D -0.81 | G 0.65 | R 0.18 | C -0.94 | M 0.76 | K 0.23 | I 0.5 | Y -0.24 | E 0.86 | S 0.08
N211: F -0.28 | M 0.07 | K 0.09 | G -3.64 | T -0.4 | Q -0.03 | D -0.68 | S -0.02 | C -1.44 | L -0.58 | W -3.13 | I -0.69 | R -0.82 | V -0.91 | Y 0 | A -0.33 | E 0.12 | H -0.34 | P -0.12
A224: F 0.35 | I 1
